Several values for one entry are separate records, joined by “and”; a condition that tells them apart may be missing. Equal entries are not always repeated.
Key:
[1] = target: T1, human VANGL2, full-length (FL), purified (human, UniProt Q9ULK5 1-521); assay: cryo-EM structure
T1 sequence (looked up): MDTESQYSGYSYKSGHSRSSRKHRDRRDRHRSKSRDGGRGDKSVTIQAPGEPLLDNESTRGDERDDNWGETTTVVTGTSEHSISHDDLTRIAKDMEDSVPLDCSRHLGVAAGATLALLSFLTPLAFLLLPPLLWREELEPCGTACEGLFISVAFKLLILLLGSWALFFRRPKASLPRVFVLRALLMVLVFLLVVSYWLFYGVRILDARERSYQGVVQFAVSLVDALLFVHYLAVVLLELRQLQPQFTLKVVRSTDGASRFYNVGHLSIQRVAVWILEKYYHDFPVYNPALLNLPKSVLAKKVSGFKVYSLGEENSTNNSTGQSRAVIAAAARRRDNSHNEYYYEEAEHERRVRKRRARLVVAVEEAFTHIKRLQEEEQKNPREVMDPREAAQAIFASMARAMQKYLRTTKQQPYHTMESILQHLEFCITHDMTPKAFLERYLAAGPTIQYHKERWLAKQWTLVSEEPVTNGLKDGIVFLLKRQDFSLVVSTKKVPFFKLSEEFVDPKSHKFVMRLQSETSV

AUC = target: the molecule itself; assay: AUC

Binder | binding result [1] | stoichiometry N (AUC)
NPGMNRFLGLYGEDDDSWCSSSSSSSDSEEEGYFLGQPIPQPRPQR (peptide, UniProt Q96MT3 745-790, looked up) [PK1^745-790 peptide, purified from E. coli] | binds | –
human VANGL1, full-length (FL), purified (natural protein, UniProt Q8TAA9 1-524, looked up) MDTESTYSGYSYYSSHSKKSHRQGERTRERHKSPRNKDGRGSEKSVTIQPPTGEPLLGNDSTRTEEVQDDNWGETTTAITGTSEHSISQEDIARISKDMEDSVGLDCKRYLGLTVASFLGLLVFLTPIAFILLPPILWRDELEPCGTICEGLFISMAFKLLILLIGTWALFFRKRRADMPRVFVFRALLLVLIFLFVVSYWLFYGVRILDSRDRNYQGIVQYAVSLVDALLFIHYLAIVLLELRQLQPMFTLQVVRSTDGESRFYSLGHLSIQRAALVVLENYYKDFTIYNPNLLTASKFRAAKHMAGLKVYNVDGPSNNATGQSRAMIAAAARRRDSSHNELYYEEAEHERRVKKRKARLVVAVEEAFIHIQRLQAEEQQKAPGEVMDPREAAQAIFPSMARALQKYLRITRQQNYHSMESILQHLAFCITNGMTPKAFLERYLSAGPTLQYDKDRWLSTQWRLVSDEAVTNGLRDGIVFVLKCLDFSLVVNVKKIPFIILSEEFIDPKSHKFVLRLQSETSV | – | ~6 and 3

Reference: publication PMC11698917 (Nature Communications, 2025)
